In publication PMC7858594, “Specific inhibition of FGF5-induced cell proliferation by RNA aptamers”:

T1: FGF5 (human, UniProt P12034 21-268)
T1 sequence: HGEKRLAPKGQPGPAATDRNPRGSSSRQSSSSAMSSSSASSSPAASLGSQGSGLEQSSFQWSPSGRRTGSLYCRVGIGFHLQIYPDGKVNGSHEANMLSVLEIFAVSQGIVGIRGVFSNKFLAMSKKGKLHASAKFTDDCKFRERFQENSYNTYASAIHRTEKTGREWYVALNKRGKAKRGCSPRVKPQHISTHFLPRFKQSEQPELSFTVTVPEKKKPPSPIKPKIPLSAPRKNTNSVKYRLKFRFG

T2: FGF6 (human, UniProt P10767 38-208)
T2 sequence: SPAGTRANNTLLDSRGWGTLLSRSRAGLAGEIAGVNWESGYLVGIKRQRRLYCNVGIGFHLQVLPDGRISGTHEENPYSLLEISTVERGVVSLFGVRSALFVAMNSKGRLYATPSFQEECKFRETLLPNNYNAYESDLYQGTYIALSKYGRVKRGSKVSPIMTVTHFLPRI

T3: FGF4 (human, UniProt P08620 31-206)
T3 sequence: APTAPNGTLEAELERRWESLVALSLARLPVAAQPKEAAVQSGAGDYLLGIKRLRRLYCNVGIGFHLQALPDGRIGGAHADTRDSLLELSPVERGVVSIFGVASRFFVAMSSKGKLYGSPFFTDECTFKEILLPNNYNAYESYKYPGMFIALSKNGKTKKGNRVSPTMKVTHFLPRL

B1: F5f1_56 (structured_RNA)
RNA: GGGCGACCUCUCCGUACUGACCUACAGAGCGACAUACUAGUGUAUCCAGAUCGCCC
modifications: 2'-fluoro pyrimidines (all C and U)
B2: F5f3_56 (structured_RNA)
RNA: GGGCGACCUAGCGUGAAUCCAACACGCUUGACAUACAAACUGCAUCCAGAUCGCCC
modifications: 2'-fluoro pyrimidines (all C and U)
B3: F5f3 (structured_RNA)
RNA: GGGCUAGCUGAUCGUACCUAGCGUGAAUCCAACACGCUUGACAUGCAAACUGCAUCCAGAUACUAACAGCUAACACCC
modifications: 2'-fluoro pyrimidines (all C and U)
B4: F5f1 (structured_RNA)
RNA: GGGCUAGCUGAUCGUACCUCUCCGUACUGACCUACAGAGCGACAUACUAGUGUAUCCAGAUACUAACAGCUAACACCC
modifications: 2'-fluoro pyrimidines (all C and U)

Key:
[1] = target: T1, FGF5; test: SPR; 4 eq low-MW heparin; SPR (BIAcore X): 20 mM Tris-HCl pH 7.4, 200 mM NaCl, 5 mM MgCl2, 5 mM CaCl2, 0.05% Tween20, 4 eq low-MW heparin; temperature not stated; conditions: protein: commercial; label: none; multi-branched loop (predicted)
[2] = target: T2, FGF6; test: SPR; 100 nM protein, 4 eq low-MW heparin; SPR (BIAcore X): 20 mM Tris-HCl pH 7.4, 200 mM NaCl, 5 mM MgCl2, 5 mM CaCl2, 0.05% Tween20, 4 eq low-MW heparin; temperature not stated; conditions: protein: commercial; label: none; multi-branched loop (predicted)
[3] = target: FGFR1alpha (IIIc)-Fc chimera (human, UniProt P11362 22-376); test: as above; conditions: protein: commercial; tags: Fc; chain copies: 2; label: none; multi-branched loop (predicted)
Sequence of FGFR1alpha (IIIc)-Fc chimera (P11362 22-376, change not shown): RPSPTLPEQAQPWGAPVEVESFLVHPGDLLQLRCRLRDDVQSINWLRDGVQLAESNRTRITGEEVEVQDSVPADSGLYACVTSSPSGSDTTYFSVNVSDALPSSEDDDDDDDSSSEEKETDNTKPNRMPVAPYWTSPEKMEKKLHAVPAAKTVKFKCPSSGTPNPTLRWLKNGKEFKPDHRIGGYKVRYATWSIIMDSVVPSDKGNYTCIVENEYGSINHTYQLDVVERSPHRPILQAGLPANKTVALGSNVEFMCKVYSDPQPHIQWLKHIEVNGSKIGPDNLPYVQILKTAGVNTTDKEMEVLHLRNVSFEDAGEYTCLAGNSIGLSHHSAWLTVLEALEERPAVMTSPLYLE

[4] = target: T3, FGF4; test: as above; conditions: protein: commercial; label: none; multi-branched loop (predicted)
[5] = target: FGF2 (human, UniProt P09038 143-288); test: as above; conditions: protein: commercial; label: none; multi-branched loop (predicted)
Sequence of FGF2 (P09038 143-288): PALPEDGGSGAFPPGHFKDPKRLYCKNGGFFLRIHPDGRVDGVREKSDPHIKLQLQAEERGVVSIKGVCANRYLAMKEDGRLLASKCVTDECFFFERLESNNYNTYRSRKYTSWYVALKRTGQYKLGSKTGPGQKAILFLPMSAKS

[6] = target: FGF1 (human, UniProt P05230 16-155); test: as above; conditions: protein: commercial; label: none; multi-branched loop (predicted)
Sequence of FGF1 (P05230 16-155): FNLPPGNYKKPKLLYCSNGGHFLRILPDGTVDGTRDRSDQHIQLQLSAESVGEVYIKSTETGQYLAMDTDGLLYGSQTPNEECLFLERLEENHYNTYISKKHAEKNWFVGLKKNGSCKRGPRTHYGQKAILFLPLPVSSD

Binder	Kd [1] [nM]	binding result [2]	binding result [3]	binding result [4]	binding result [5]	binding result [6]
B1	0.118 ± 0.003					
B2	0.92 ± 0.04					
B3	0.57 ± 0.02					
B4	0.7 ± 0.2	no binding	no binding	no binding	no binding	no binding
